Assay results taken from patent US20260027152A1 (SANGAMO THERAPEUTICS, published 2026).

Assays:
[1] = target: IL-23R (coated on beads, Example 1); assay: cell-based or functional assay
[2] = target: T1, mouse IL23Ra (coated on beads) (mouse, UniProt Q8K4B4 24-372, limits assumed); assay: ratio of the EC50 values on mouse and human IL23Ra-coated beads (flow cytometry)
T1 construct: also called mouse IL-23R alpha subunit
T1 sequence (looked up): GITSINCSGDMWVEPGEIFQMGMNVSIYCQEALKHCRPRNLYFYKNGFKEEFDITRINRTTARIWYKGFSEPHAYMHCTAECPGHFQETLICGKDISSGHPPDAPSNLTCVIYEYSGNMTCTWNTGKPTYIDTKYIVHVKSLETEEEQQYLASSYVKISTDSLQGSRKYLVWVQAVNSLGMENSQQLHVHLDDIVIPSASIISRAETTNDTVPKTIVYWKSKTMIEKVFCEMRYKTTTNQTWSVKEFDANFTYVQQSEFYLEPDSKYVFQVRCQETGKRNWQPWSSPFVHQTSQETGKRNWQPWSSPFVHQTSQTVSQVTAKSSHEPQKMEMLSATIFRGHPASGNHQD
Experimental: (§1) The indicated scFVs were produced in mammalian 293tcells, purified and biotinylated. Biotinylated scFvs were then incubated at 25° C. with mouse or human IL23Ra-coated beads for 30 min in PBS. After cold washing, bound IL23R bound scFV was detected by incubation with APC-labelled Streptavidin and analysis of the samples on a Flow-cytometer. An EC50 was calculated based on the median fluorescence intensity from each condition. Calculation, curve fitting and EC50 calculation was performed via Graphpad Prism.

[3] = target: T2, human IL23Ra (coated on beads) (human, UniProt Q5VWK5 24-353, limits assumed); assay: flow cytometry; biotinylated scFv on human IL23Ra-coated beads, detected with APC-streptavidin, EC50 from median fluorescence intensity
T2 construct: also called human IL-23R alpha subunit
T2 sequence (looked up): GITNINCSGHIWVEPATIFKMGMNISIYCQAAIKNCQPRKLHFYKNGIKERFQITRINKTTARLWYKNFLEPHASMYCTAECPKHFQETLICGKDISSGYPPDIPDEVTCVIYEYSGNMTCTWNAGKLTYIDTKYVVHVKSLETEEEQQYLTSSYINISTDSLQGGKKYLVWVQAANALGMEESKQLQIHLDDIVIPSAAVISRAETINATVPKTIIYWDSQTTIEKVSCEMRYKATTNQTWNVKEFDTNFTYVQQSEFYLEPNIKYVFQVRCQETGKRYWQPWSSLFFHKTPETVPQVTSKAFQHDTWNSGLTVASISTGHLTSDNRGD
Experimental: as §1

[4] = target: T1, mouse IL23Ra (coated on beads); assay: flow cytometry; biotinylated scFv on mouse IL23Ra-coated beads, detected with APC-streptavidin, EC50 from median fluorescence intensity
Experimental: as §1

Chain of IL-23R (coated on beads, Example 1) (Q5VWK5 whole entry): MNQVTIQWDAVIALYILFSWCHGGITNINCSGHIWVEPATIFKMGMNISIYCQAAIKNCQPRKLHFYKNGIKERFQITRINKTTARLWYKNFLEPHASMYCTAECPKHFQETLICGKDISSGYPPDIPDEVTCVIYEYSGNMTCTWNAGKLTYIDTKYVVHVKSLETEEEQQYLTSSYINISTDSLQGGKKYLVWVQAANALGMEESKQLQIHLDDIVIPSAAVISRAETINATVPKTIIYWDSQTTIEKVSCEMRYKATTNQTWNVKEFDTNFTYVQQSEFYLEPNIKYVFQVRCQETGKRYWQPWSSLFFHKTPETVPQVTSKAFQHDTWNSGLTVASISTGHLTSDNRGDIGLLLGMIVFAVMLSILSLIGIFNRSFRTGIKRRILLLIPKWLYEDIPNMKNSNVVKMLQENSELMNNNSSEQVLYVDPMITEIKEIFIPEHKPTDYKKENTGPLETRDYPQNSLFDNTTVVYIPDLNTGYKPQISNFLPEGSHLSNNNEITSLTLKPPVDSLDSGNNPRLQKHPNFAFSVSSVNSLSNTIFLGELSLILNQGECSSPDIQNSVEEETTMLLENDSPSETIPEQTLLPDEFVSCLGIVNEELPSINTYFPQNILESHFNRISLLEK

B1: CAR #2 (anti-IL-23R chimeric antigen receptor with scFv IL23RLamS4-G3, CD8 hinge, CD8 TM, CD28, CD3 zeta) (other)
chain: SYPYDVPDYASQSVLTQPPSVSGAPGQRVTISCTGSSSNIGAGYDVHWYQQLPGTAPKLLIYGNNNRPSGVPDRFSGSKSGTSASLAITGLQAEDEADYYCQSYDTGLSAWVFGGGTKLTVLGGGGSGGGGSGGGGSQLQLQESGPGLVKPSETLSLTCTVSGGSITSSNYYWGWIRQPPGKGLEWIGSIYYSGNTYYNPSLKSRVTISVDTSKNQFSLKLSSVTAADTAVYYCAREWSPYESEGFDYWGQGTLVTVSSTTTPAPRPPTPAPTIASQPLSLRPEACRPAAGGAVHTRGLDFACDIYIWAPLAGTCGVLLLSLVITLYCRSKRSRLLHSDYMNMTPRRPGPTRKHYQPYAPPRDFAAYRSRVKFSRSADAPAYQQGQNQLYNELNLGRREEYDVLDKRRGRDPEMGGKPRRKNPQEGLYNELQKDKMAEAYSEIGMKGERRRGKGHDGLYQGLSTATKDTYDALHMQALPPR
[1]
  CD69+ cells (CAR-Treg activation) after 24 h with IL-23R coated beads, fold increase: 3.6 fold

B2: anti-IL-23R scFv IL23RLamS4-G3 (scFv)
scFv: QSVLTQPPSVSGAPGQRVTISCTGSSSNIGAGYDVHWYQQLPGTAPKLLIYGNNNRPSGVPDRFSGSKSGTSASLAITGLQAEDEADYYCQSYDTGLSAWVFGGGTKLTVLGGGGSGGGGSGGGGSQLQLQESGPGLVKPSETLSLTCTVSGGSITSSNYYWGWIRQPPGKGLEWIGSIYYSGNTYYNPSLKSRVTISVDTSKNQFSLKLSSVTAADTAVYYCAREWSPYESEGFDYWGQGTLVTVSS
modifications: biotinylated (sites not given)
notes: also called hmIL23R LamS4-G3; scFv of the present disclosure
[2]
  fold difference in binding affinity between human IL23R and mouse IL23R: ~1.4 fold
[3]
  EC50: 37.6 nM
[4]
  EC50: 53.1 nM
